The record followed here is FireProtDB (doi:10.1016/j.jmb.2003.10.041).

B1: Bacteriorhodopsin, P02945 (parent)
chain: MLELLPTAVEGVSQAQITGRPEWIWLALGTALMGLGTLYFLVKGMGVSDPDAKKFYAITTLVPAIAFTMYLSMLLGYGLTMVPFGGEQNPIYWARYADWLFTTPLLLLDLALLVDADQGTILALVGADGIMIGTGLVGALTKVYSYRFVWWAISTAAMLYILYVLFFGFTSKAESMRPEVASTFKVLRNVTVVLWSAYPVVWLIGSEGAGIVPLNIETLLFMVLDVSAKVGFGLILLRSRAIFGEAEAPEPSAGDGAAATSD

The variants in the data set derive from B1. Conditions: Halobacterium salinarum (strain ATCC 700922 / JCM 11081 / NRC-1); pH 6; 25 °C; SDS; Absorbance; sodium phosphate 10 mM; reversible: yes (90%); structure 2BRD; whole UniProt chain shown.
Take MLELLPTAVEGVSQAQITGRPEWIWLALGTALMGLGTLYFLVKGMGVSDPDAKKFYAITTLVPAIAATMYLSMLLGYGLTMVPFGGEQNPIYWARYADWLFTTPLLLLDLALLVDADQGTILALVGADGIMIGTGLVGALTKVYSYRFVWWAISTAAMLYILYVLFFGFTSKAESMRPEVASTFKVLRNVTVVLWSAYPVVWLIGSEGAGIVPLNIETLLFMVLDVSAKVGFGLILLRSRAIFGEAEAPEPSAGDGAAATSD [F67A]: the “ddG of mutation (higher = less stable)” value came out at 1 kcal/mol. For MLELLPTAVEGVSQAQITGRPEWIWLALGTALMGLGTLYFLVKGMGVSDPDAKKFYAITTLVPAIAFTMYASMLLGYGLTMVPFGGEQNPIYWARYADWLFTTPLLLLDLALLVDADQGTILALVGADGIMIGTGLVGALTKVYSYRFVWWAISTAAMLYILYVLFFGFTSKAESMRPEVASTFKVLRNVTVVLWSAYPVVWLIGSEGAGIVPLNIETLLFMVLDVSAKVGFGLILLRSRAIFGEAEAPEPSAGDGAAATSD [L71A] the value was -0.3 kcal/mol; for MLELLPTAVEGVSQAQITGRPEWIWLALGTALMGLGTLYFLVKGMGVSDPDAKKFYAITTLVPAIAFTMYLAMLLGYGLTMVPFGGEQNPIYWARYADWLFTTPLLLLDLALLVDADQGTILALVGADGIMIGTGLVGALTKVYSYRFVWWAISTAAMLYILYVLFFGFTSKAESMRPEVASTFKVLRNVTVVLWSAYPVVWLIGSEGAGIVPLNIETLLFMVLDVSAKVGFGLILLRSRAIFGEAEAPEPSAGDGAAATSD [S72A], -0.1 kcal/mol; for MLELLPTAVEGVSQAQITGRPEWIWLALGTALMGLGTLYFLVKGMGVSDPDAKKFYAITTLVPAIAFTMYLSALLGYGLTMVPFGGEQNPIYWARYADWLFTTPLLLLDLALLVDADQGTILALVGADGIMIGTGLVGALTKVYSYRFVWWAISTAAMLYILYVLFFGFTSKAESMRPEVASTFKVLRNVTVVLWSAYPVVWLIGSEGAGIVPLNIETLLFMVLDVSAKVGFGLILLRSRAIFGEAEAPEPSAGDGAAATSD [M73A], 0.8 kcal/mol. With MLELLPTAVEGVSQAQITGRPEWIWLALGTALMGLGTLYFLVKGMGVSDPDAKKFYAITTLVPAIAFAMYLSMLLGYGLTMVPFGGEQNPIYWARYADWLFTTPLLLLDLALLVDADQGTILALVGADGIMIGTGLVGALTKVYSYRFVWWAISTAAMLYILYVLFFGFTSKAESMRPEVASTFKVLRNVTVVLWSAYPVVWLIGSEGAGIVPLNIETLLFMVLDVSAKVGFGLILLRSRAIFGEAEAPEPSAGDGAAATSD [T68A], the “ddG of mutation (higher = less stable)” value was found to be 0.1 kcal/mol. To MLELLPTAVEGVSQAQITGRPEWIWLALGTALMGLGTLYFLVKGMGVSDPDAKKFYAITTLVAAIAFTMYLSMLLGYGLTMVPFGGEQNPIYWARYADWLFTTPLLLLDLALLVDADQGTILALVGADGIMIGTGLVGALTKVYSYRFVWWAISTAAMLYILYVLFFGFTSKAESMRPEVASTFKVLRNVTVVLWSAYPVVWLIGSEGAGIVPLNIETLLFMVLDVSAKVGFGLILLRSRAIFGEAEAPEPSAGDGAAATSD [P63A] belongs -0.1 kcal/mol. As for MLELLPTAVEGVSQAQITGRPEWIWLALGTALMGLGTLYFLVKGMGVSDPDAKKFYAITTLVPAIAFTMYLSMLAGYGLTMVPFGGEQNPIYWARYADWLFTTPLLLLDLALLVDADQGTILALVGADGIMIGTGLVGALTKVYSYRFVWWAISTAAMLYILYVLFFGFTSKAESMRPEVASTFKVLRNVTVVLWSAYPVVWLIGSEGAGIVPLNIETLLFMVLDVSAKVGFGLILLRSRAIFGEAEAPEPSAGDGAAATSD [L75A], the “ddG of mutation (higher = less stable)” value is -0.5 kcal/mol. For MLELLPTAVEGVSQAQITGRPEWIWLALGTALMGLGTLYFLVKGMGVSDPDAKKFYAITTLVPAAAFTMYLSMLLGYGLTMVPFGGEQNPIYWARYADWLFTTPLLLLDLALLVDADQGTILALVGADGIMIGTGLVGALTKVYSYRFVWWAISTAAMLYILYVLFFGFTSKAESMRPEVASTFKVLRNVTVVLWSAYPVVWLIGSEGAGIVPLNIETLLFMVLDVSAKVGFGLILLRSRAIFGEAEAPEPSAGDGAAATSD [I65A] the value was 1.4 kcal/mol; for MLELLPTAVEGVSQAQITGRPEWIWLALGTALMGLGTLYFLVKGMGVSDPDAKKFYAITTLVPAIAFTAYLSMLLGYGLTMVPFGGEQNPIYWARYADWLFTTPLLLLDLALLVDADQGTILALVGADGIMIGTGLVGALTKVYSYRFVWWAISTAAMLYILYVLFFGFTSKAESMRPEVASTFKVLRNVTVVLWSAYPVVWLIGSEGAGIVPLNIETLLFMVLDVSAKVGFGLILLRSRAIFGEAEAPEPSAGDGAAATSD [M69A], -1.4 kcal/mol; for MLELLPTAVEGVSQAQITGRPEWIWLALGTALMGLGTLYFLVKGMGVSDPDAKKFYAITTLVPAIAFTMYLSMALGYGLTMVPFGGEQNPIYWARYADWLFTTPLLLLDLALLVDADQGTILALVGADGIMIGTGLVGALTKVYSYRFVWWAISTAAMLYILYVLFFGFTSKAESMRPEVASTFKVLRNVTVVLWSAYPVVWLIGSEGAGIVPLNIETLLFMVLDVSAKVGFGLILLRSRAIFGEAEAPEPSAGDGAAATSD [L74A], -0.7 kcal/mol.
